According to paper PMC3668541, “Production of recombinant 1-deoxy-D-xylulose-5-phosphate synthase from Plasmodium vivax in Escherichia coli^” (FEBS Open Bio, 2013):

Tests used:
[1] = target: T1, P. vivax DXScc (DXS SH-2, DXS catalytic core) (Plasmodium vivax, UniProt A5K817); test: DXS–DXR coupled assay; type: biochemical
T1 construct: gene PVX_082790; catalytic core, N-terminal first 210 residues (signal and transit peptide) deleted; codon-optimized gene in E. coli; theoretical monomer 103,921 Da; homodimer
T1 sequence (A5K817 211-1111): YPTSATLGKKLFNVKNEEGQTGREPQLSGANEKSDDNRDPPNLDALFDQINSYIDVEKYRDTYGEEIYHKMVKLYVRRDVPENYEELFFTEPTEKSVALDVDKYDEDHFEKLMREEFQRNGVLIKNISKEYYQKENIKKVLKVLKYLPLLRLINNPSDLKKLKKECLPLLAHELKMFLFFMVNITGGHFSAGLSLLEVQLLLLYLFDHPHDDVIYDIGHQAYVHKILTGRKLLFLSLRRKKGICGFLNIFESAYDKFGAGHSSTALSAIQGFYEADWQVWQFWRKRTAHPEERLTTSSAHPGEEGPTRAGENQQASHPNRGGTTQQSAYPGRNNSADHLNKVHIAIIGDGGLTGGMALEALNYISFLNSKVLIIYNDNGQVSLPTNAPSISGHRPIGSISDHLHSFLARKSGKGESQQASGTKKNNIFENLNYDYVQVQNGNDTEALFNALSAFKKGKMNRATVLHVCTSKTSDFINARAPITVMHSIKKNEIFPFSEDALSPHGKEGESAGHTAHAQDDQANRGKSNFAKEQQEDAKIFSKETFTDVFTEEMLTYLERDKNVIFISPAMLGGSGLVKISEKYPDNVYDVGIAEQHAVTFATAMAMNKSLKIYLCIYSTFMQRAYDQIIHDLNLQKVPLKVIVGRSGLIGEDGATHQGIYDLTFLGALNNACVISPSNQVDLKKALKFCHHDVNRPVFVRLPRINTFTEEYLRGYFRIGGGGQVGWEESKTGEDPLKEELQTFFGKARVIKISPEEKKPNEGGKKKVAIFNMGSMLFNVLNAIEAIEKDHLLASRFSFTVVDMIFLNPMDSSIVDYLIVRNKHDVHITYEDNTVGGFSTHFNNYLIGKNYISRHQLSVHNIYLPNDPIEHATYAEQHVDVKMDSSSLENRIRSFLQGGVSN

[2] = target: Plasmodium vivax 1-deoxy-D-xylulose-5-phosphate synthase catalytic core (DXScc) (Plasmodium vivax); test: SEC; gel filtration chromatography under non-denaturing conditions of DXScc after Ni-NTA affinity chromatography; buffer and column not shown (Supplementary material)
DXS–DXR coupled assay [3] = substrate: O=C[C@H](O)COP(=O)(O)O; test: DXS–DXR coupled assay; type: biochemical, Plasmodium vivax; details: apparent; 4.0 mM pyruvate
From the text: (§1) DXS–DXR coupled assay on P. vivax DXScc (DXS SH-2, DXS catalytic core)

DXS–DXR coupled assay [4] = substrate: CC(=O)C(=O)O; test: DXS–DXR coupled assay; type: biochemical, Plasmodium vivax; details: apparent; 0.1 mM GAP
From the text: as §1

**Q.** How did the Ki [1] turn out when `O=C(O)C(=O)CF` [β-fluoropyruvate] was run?
**A.** 200 ± 100 µM

**Q.** How did the stoichiometry N [2] turn out when “Plasmodium vivax 1-deoxy-D-xylulose-5-phosphate synthase catalytic core (DXScc) (enzyme)” was run?
**A.** 2

B1: P. vivax DXScc (DXS SH-2, DXS catalytic core) (Plasmodium vivax Sal-1) (protein)
chain: T1 sequence (A5K817 211-1111)
notes: catalytic core, N-terminal first 210 residues (signal and transit peptide) deleted; codon-optimized gene in E. coli; theoretical monomer 103,921 Da; homodimer
**Q.** Which results are given for B1?
**A.** Km (DXS–DXR coupled assay [3]): 19 ± 4 µM; kcat (DXS–DXR coupled assay [3]): 11 ± 0.9 s⁻¹; kcat/Km (DXS–DXR coupled assay [3]): 570000 M⁻¹ s⁻¹; Km (DXS–DXR coupled assay [4]): 870 ± 110 µM; kcat (DXS–DXR coupled assay [4]): 9.5 ± 0.5 s⁻¹; kcat/Km (DXS–DXR coupled assay [4]): 11000 M⁻¹ s⁻¹
